# Source: paper PMC11566000
# Molecular target: T1, SloR (purified native) (UniProt I6L923 1-217)
# T1 sequence: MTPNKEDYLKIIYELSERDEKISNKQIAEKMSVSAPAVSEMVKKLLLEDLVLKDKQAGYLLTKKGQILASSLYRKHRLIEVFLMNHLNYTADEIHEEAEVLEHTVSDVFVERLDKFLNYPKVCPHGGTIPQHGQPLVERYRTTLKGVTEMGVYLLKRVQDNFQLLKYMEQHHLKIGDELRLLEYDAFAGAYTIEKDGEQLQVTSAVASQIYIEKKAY
# Experiment: BLI
binder,measurement,value
mntH.22.SRE3.WT (dsDNA) DNA 1: CAGTAATTCTTACAAACTCTTT DNA 2: AAAGAGTTTGTAAGAATTACTG,binding result,no binding
